Experimental data published in paper PMC4104448 (2014).

B5: Biotinylated human β-glucocerebrosidase (residues 40A-536R) (enzyme)
chain: ARPCIPKSFGYSSVVCVCNATYCDSFDPPTFPALGTFSRYESTRSGRRMELSMGPIQANHTGTGLLLTLQPEQKFQKVKGFGGAMTDAAALNILALSPPAQNLLLKSYFSEEGIGYNIIRVPMASCDFSIRTYTYADTPDDFQLHNFSLPEEDTKLKIPLIHRALQLAQRPVSLLASPWTSPTWLKTNGAVNGKGSLKGQPGDIYHQTWARYFVKFLDAYAEHKLQFWAVTAENEPSAGLLSGYPFQCLGFTPEHQRDFIARDLGPTLANSTHHNVRLLMLDDQRLLLPHWAKVVLTDPEAAKYVHGIAVHWYLDFLAPAKATLGETHRLFPNTMLFASEACVGSKFWEQSVRLGSWDRGMQYSHSIITNLLYHVVGWTDWNLALNPEGGPNWVRNFVDSPIIVDITKDTFYKQPMFYHLGHFSKFIPEGSQRVGLVASQKNDLDAVALMHPDGSAVVVVLNRSSKDVPLTIKDPAVGFLETISPGYSIHTYLWRRQ
modifications: biotin (in vivo biotinylated by BirA)

How the values were obtained:
[1] = biological target: B5; assay: SPR
[2] = biological target: B5; assay: SPR; 2 mM G6P
[3] = biological target: T1, Biotinylated human CI-MPR domains I-XV (residues 41Q-G2293) (human, UniProt P11717 41-2293, biotin (in vivo biotinylated by BirA)); assay: SPR; 2 mM G6P
T1 sequence (P11717 41-2293): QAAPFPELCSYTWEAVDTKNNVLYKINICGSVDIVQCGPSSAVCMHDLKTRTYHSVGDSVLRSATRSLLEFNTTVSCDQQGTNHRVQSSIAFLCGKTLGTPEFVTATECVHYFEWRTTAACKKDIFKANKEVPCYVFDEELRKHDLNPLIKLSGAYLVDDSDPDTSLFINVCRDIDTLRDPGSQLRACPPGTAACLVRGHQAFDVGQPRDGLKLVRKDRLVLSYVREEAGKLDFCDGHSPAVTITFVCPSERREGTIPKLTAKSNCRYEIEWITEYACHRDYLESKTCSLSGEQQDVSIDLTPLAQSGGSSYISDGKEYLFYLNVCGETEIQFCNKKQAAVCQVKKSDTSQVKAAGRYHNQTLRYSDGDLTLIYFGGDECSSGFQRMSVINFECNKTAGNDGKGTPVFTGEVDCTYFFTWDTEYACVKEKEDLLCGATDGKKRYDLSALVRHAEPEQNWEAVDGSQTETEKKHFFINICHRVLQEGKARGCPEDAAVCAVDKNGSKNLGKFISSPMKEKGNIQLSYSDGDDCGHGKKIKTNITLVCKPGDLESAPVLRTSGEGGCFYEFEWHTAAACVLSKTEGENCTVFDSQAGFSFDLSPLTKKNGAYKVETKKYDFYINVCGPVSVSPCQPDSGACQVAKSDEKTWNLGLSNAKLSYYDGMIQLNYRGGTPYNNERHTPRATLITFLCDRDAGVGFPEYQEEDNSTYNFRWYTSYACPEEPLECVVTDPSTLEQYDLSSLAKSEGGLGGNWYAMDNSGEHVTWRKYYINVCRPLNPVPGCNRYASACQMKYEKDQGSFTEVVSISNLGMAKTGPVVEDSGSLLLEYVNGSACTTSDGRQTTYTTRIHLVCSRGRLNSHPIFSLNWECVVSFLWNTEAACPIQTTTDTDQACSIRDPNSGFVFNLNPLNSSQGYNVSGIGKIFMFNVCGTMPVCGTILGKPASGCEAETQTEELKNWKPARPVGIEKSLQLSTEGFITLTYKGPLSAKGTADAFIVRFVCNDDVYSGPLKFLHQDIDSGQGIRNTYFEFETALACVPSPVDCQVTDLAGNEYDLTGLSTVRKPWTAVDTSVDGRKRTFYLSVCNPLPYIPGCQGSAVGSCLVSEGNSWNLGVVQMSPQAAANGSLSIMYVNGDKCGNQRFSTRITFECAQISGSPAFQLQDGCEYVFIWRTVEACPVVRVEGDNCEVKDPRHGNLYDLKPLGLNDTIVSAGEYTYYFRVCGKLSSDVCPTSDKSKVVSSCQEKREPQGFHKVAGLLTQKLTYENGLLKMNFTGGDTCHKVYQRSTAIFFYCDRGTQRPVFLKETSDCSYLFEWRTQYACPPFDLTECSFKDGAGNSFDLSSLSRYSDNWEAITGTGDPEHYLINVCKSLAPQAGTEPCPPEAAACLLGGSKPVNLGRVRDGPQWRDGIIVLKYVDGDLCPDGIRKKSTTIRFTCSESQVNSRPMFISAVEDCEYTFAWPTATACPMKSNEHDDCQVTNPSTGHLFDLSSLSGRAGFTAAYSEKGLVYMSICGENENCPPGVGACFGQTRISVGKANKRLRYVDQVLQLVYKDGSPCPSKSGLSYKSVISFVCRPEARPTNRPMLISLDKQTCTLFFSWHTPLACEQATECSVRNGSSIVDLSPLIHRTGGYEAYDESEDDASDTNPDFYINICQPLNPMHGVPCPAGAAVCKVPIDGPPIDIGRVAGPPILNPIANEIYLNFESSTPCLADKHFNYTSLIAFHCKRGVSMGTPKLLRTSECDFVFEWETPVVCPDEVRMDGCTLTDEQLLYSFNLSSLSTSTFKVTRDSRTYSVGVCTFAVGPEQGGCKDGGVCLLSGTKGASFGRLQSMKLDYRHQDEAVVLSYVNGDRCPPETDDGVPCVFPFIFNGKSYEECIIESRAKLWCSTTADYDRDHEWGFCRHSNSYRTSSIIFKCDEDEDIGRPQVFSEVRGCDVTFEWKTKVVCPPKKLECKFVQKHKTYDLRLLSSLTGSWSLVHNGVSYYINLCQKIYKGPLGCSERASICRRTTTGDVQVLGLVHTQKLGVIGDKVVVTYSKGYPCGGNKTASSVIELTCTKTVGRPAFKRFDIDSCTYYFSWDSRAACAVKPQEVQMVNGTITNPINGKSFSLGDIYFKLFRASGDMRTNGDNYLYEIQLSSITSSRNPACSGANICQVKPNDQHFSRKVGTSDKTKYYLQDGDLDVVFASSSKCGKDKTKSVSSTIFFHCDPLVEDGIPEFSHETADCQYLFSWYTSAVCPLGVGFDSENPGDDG

[4] = biological target: B5; assay: SPR; 2 mM M6P
[5] = biological target: B5; assay: SPR; 2 mM mannose
[6] = biological target: T1, Biotinylated human CI-MPR domains I-XV …; assay: SPR; 2 mM mannose
[7] = biological target: T1, Biotinylated human CI-MPR domains I-XV …; assay: SPR; with 2 mM mannose
[8] = biological target: T1, Biotinylated human CI-MPR domains I-XV …; assay: SPR; buffer without sugar
[9] = biological target: B5; assay: SPR; pH 6.5
H150T mutant LIMP-2 [10] = biological target: T2, H150T mutant LIMP-2 (human, UniProt Q14108 28-432, H150T); assay: SPR; pH 5.5
T2 sequence: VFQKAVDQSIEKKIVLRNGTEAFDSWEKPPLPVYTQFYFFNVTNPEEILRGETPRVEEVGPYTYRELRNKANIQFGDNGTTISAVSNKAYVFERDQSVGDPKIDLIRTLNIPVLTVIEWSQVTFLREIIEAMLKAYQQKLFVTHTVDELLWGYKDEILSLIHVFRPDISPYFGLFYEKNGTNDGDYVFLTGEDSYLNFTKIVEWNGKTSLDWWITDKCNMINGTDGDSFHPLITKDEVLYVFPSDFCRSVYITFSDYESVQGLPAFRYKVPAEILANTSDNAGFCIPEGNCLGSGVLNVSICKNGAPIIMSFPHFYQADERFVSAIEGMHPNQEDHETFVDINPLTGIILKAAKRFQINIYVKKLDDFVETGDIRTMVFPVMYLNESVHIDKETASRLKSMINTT

H150T mutant LIMP-2 [11] = biological target: T2, H150T mutant LIMP-2; assay: SPR; pH 6.5

B1: Human LIMP-2 luminal domain (residues 28-431) produced from HEK293T cells, with full glycosylation (domain or fragment)
chain: VFQKAVDQSIEKKIVLRNGTEAFDSWEKPPLPVYTQFYFFNVTNPEEILRGETPRVEEVGPYTYRELRNKANIQFGDNGTTISAVSNKAYVFERDQSVGDPKIDLIRTLNIPVLTVIEWSQVHFLREIIEAMLKAYQQKLFVTHTVDELLWGYKDEILSLIHVFRPDISPYFGLFYEKNGTNDGDYVFLTGEDSYLNFTKIVEWNGKTSLDWWITDKCNMINGTDGDSFHPLITKDEVLYVFPSDFCRSVYITFSDYESVQGLPAFRYKVPAEILANTSDNAGFCIPEGNCLGSGVLNVSICKNGAPIIMSFPHFYQADERFVSAIEGMHPNQEDHETFVDINPLTGIILKAAKRFQINIYVKKLDDFVETGDIRTMVFPVMYLNESVHIDKETASRLKSMINT
modifications: full glycosylation
[1]
  Kd: 2060 nM
[2]
  Kd: 1800 nM
[3]
  Kd: 1160 nM
[4]
  Kd: 2100 nM
[5]
  Kd: 2830 nM
[6]
  Kd: 1200 nM

B2: Human LIMP-2 luminal domain (residues 28-431) produced from HEK293S (GnTI-) cells, with limited glycosylation (domain or fragment)
chain: VFQKAVDQSIEKKIVLRNGTEAFDSWEKPPLPVYTQFYFFNVTNPEEILRGETPRVEEVGPYTYRELRNKANIQFGDNGTTISAVSNKAYVFERDQSVGDPKIDLIRTLNIPVLTVIEWSQVHFLREIIEAMLKAYQQKLFVTHTVDELLWGYKDEILSLIHVFRPDISPYFGLFYEKNGTNDGDYVFLTGEDSYLNFTKIVEWNGKTSLDWWITDKCNMINGTDGDSFHPLITKDEVLYVFPSDFCRSVYITFSDYESVQGLPAFRYKVPAEILANTSDNAGFCIPEGNCLGSGVLNVSICKNGAPIIMSFPHFYQADERFVSAIEGMHPNQEDHETFVDINPLTGIILKAAKRFQINIYVKKLDDFVETGDIRTMVFPVMYLNESVHIDKETASRLKSMINT
modifications: N-linked P-Man9GlcNAc2 (with terminal mannose 6-phosphate) at N325; sugars on all nine N-linked glycosylation sites, limited processing
[7]
  Kd: 1880 nM
[8]
  Kd: 1800 nM

B3: Human LIMP-2 luminal domain produced from HEK293S (GNTI-) cells and deglycosylated with endoglycosidase F1 (domain or fragment)
chain: VFQKAVDQSIEKKIVLRNGTEAFDSWEKPPLPVYTQFYFFNVTNPEEILRGETPRVEEVGPYTYRELRNKANIQFGDNGTTISAVSNKAYVFERDQSVGDPKIDLIRTLNIPVLTVIEWSQVHFLREIIEAMLKAYQQKLFVTHTVDELLWGYKDEILSLIHVFRPDISPYFGLFYEKNGTNDGDYVFLTGEDSYLNFTKIVEWNGKTSLDWWITDKCNMINGTDGDSFHPLITKDEVLYVFPSDFCRSVYITFSDYESVQGLPAFRYKVPAEILANTSDNAGFCIPEGNCLGSGVLNVSICKNGAPIIMSFPHFYQADERFVSAIEGMHPNQEDHETFVDINPLTGIILKAAKRFQINIYVKKLDDFVETGDIRTMVFPVMYLNESVHIDKETASRLKSMINT
modifications: glycans trimmed to a single N-acetylglucosamine with endoglycosidase F1
[1]
  Kd: 3000 nM

B4: Wild-type LIMP-2 (soluble luminal domain; producing cells not stated for the experiment) (domain or fragment)
chain: VFQKAVDQSIEKKIVLRNGTEAFDSWEKPPLPVYTQFYFFNVTNPEEILRGETPRVEEVGPYTYRELRNKANIQFGDNGTTISAVSNKAYVFERDQSVGDPKIDLIRTLNIPVLTVIEWSQVHFLREIIEAMLKAYQQKLFVTHTVDELLWGYKDEILSLIHVFRPDISPYFGLFYEKNGTNDGDYVFLTGEDSYLNFTKIVEWNGKTSLDWWITDKCNMINGTDGDSFHPLITKDEVLYVFPSDFCRSVYITFSDYESVQGLPAFRYKVPAEILANTSDNAGFCIPEGNCLGSGVLNVSICKNGAPIIMSFPHFYQADERFVSAIEGMHPNQEDHETFVDINPLTGIILKAAKRFQINIYVKKLDDFVETGDIRTMVFPVMYLNESVHIDKETASRLKSMINT
[9]
  Kd: 1200 nM

## B5
H150T mutant LIMP-2 [10]
  Kd: 2100 nM
H150T mutant LIMP-2 [11]
  Kd: 2300 nM
